Data published in US20260232732A1 (FUNDACI INSTITUT DE RECERCA CONTRA LA LEUC MIA JOSEP …, published 2026).
Where no end group is shown, it is not given here. The star is where a group is joined. Biotin = O=C1N[C@H]2[C@H](CS[C@H]2CCCCC(=O)*)N1

T1: Pep1-48, N-terminal domain 1 of CCR9, amino acids 1 to 48 (human)
T1 construct: Chemically synthesized (Genscript), purity >75%; also called CCR9 N-terminal 1-48 peptide
T1 peptide: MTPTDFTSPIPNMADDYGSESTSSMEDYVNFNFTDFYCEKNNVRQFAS

T2: naked peptide 1b MEDYVNFNFTDFYCEKNNVRQFAS (human)
T2 construct: also called region amino acids 25 to 48
T2 peptide: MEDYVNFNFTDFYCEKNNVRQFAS

T3: naked peptide 1a MTPTDFTSPIPNMADDYGSESTSS (human)
T3 construct: also called region 1-24
T3 peptide: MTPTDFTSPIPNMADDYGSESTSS

T4: biotin-peptide TSPIPNMADD (human)
T4 peptide: Biotin-TSPIPNMADD

T5: biotin-peptide SSMEDYVNFN (human)
T5 peptide: Biotin-SSMEDYVNFN

T6: biotin-peptide YVNFNFTDFY (human)
T6 peptide: Biotin-YVNFNFTDFY

T7: biotin-peptide IPNMADDYGS (human)
T7 peptide: Biotin-IPNMADDYGS

T8: biotin-peptide TDFYCEKNNV (human)
T8 peptide: Biotin-TDFYCEKNNV

T9: biotin-peptide MEDYVNFNFT (human)
T9 peptide: Biotin-MEDYVNFNFT

T10: biotin-peptide MTPTDFTSPI (human, also: prints MTPTDFTSP, without I10)
T10 peptide: Biotin-MTPTDFTSPI

T11: biotin-peptide TDFTSPIPNM (human)
T11 peptide: Biotin-TDFTSPIPNM

T12: biotin-peptide DYGSESTSSM (human)
T12 peptide: Biotin-DYGSESTSSM

T13: biotin-peptide TSSMEDYVNF (human)
T13 peptide: Biotin-TSSMEDYVNF

T14: biotin-peptide SESTSSMEDY (human)
T14 peptide: Biotin-SESTSSMEDY

T15: biotin-peptide KNNVRQFAS (human)
T15 peptide: Biotin-KNNVRQFAS

T16: biotin-peptide YCEKNNVRQF (human)
T16 peptide: Biotin-YCEKNNVRQF

T17: biotin-peptide SMEDYVNFNF (human)
T17 peptide: Biotin-SMEDYVNFNF

T18: biotin-peptide FNFTDFYCEK (human)
T18 peptide: Biotin-FNFTDFYCEK

T19: biotin-peptide MADDYGSEST (human)
T19 peptide: Biotin-MADDYGSEST


How the values were obtained:
[1] = molecular target: T1, Pep1-48, N-terminal domain 1 of CCR9, …; assay: BLI, scFv on NTA biosensor, 1:1 global fit
Description: The affinity between the CCR9-N-terminal domain 1 of CCR9 and the different scFvs was determined by Bio-Layer Interferometry (BLI), a technique that allows quantitative and qualitative measurement of biomolecular interactions in real-time. Briefly, scFv were immobilized onto NTA Biosensor (Sartorius) and quantification was performed in an Octet RED384 (Sartorius). scFv were dissolved in PBS (150 mM NaCl, 38 mM Na2HPO4, 12 mM NaH2PO4, pH 7.2) and a buffer containing 0.03% Tween-20 in PBS, pH 7.2 was used for baseline steps.

[2] = molecular target: T2, naked peptide 1b …; assay: ELISA naked 24-mer; repI
[3] = molecular target: T3, naked peptide 1a …; assay: ELISA naked 24-mer; repI
[4] = molecular target: T2, naked peptide 1b …; assay: ELISA naked 24-mer; repII
[5] = molecular target: T3, naked peptide 1a …; assay: ELISA naked 24-mer; repII
[6] = molecular target: T4, biotin-peptide TSPIPNMADD; assay: ELISA biotin-peptide; scFv 10 ug/mL; repI
Description: (§1) The peptides were synthesized naked or with a N-terminal Biotin modification with a purity of >98%. All four scFvs were verified by ELISA that can be detected with anti-His antibodies. ELISA was performed for scFv-peptide binding validation. Briefly, naked peptides were coated (50 μg/mL) in 0.58M carbonate-bicarbonate buffer pH9.5, 100 μL/well, 4° C. O/N. Then after blocking (3% BSA-PBS, 300 μL/well 37° C. 1.5 h) and washing (PBS+Tween-20 0.05% v/v (0.05% PBST), wells were incubated with each purified scFv antibody at concentration of 1 μg/mL in PBS at 37° C. 1 h. After washing (0.05% PBST), wells were incubated with secondary antibodies (goat anti-His IgG-HRP) in PBS, 37° C., 30 min. After washing, and incubation with TMB substrate, reactions were stopped with 2M HCl and reading was quantified at OD450.
(§2) Then a library of overlapping peptides were designed and constructed separately to produce 16 different peptides, covering full antigen sequence of total 48 aa. Peptide size was 10aa, with 7aa overlapping and ELISA screening of scFv against each peptide was performed in duplicate. Screening was performed using naked peptides in a standard plate or biotinylated peptides using avidin-plates. The list of overlapping peptides was as follows:
(§3) ELISA with biotin-conjugated peptides (5 μg/mL) was performed very similar to described above with minor modifications.

[7] = molecular target: T5, biotin-peptide SSMEDYVNFN; assay: ELISA biotin-peptide; scFv 10 ug/mL; repI
Description: as §1, §2, §3

[8] = molecular target: T6, biotin-peptide YVNFNFTDFY; assay: ELISA biotin-peptide; scFv 10 ug/mL; repI
Description: as §1, §2, §3

[9] = molecular target: T7, biotin-peptide IPNMADDYGS; assay: ELISA biotin-peptide; scFv 10 ug/mL; repI
Description: as §1, §2, §3

[10] = molecular target: T8, biotin-peptide TDFYCEKNNV; assay: ELISA biotin-peptide; scFv 10 ug/mL; repI
Description: as §1, §2, §3

[11] = molecular target: T9, biotin-peptide MEDYVNFNFT; assay: ELISA biotin-peptide; scFv 10 ug/mL; repI
Description: as §1, §2, §3

[12] = molecular target: T10, biotin-peptide MTPTDFTSPI; assay: ELISA biotin-peptide; scFv 10 ug/mL; repI
Description: as §1, §2, §3

[13] = molecular target: T11, biotin-peptide TDFTSPIPNM; assay: ELISA biotin-peptide; scFv 10 ug/mL; repI
Description: as §1, §2, §3

[14] = molecular target: T12, biotin-peptide DYGSESTSSM; assay: ELISA biotin-peptide; scFv 10 ug/mL; repI
Description: as §1, §2, §3

[15] = molecular target: T13, biotin-peptide TSSMEDYVNF; assay: ELISA biotin-peptide; scFv 10 ug/mL; repI
Description: as §1, §2, §3

[16] = molecular target: T14, biotin-peptide SESTSSMEDY; assay: ELISA biotin-peptide; scFv 10 ug/mL; repI
Description: as §1, §2, §3

biotin-peptide KNNVRQFAS = molecular target: T15, biotin-peptide KNNVRQFAS; assay: ELISA biotin-peptide; scFv 10 ug/mL; repI
Description: as §1, §2, §3

[17] = molecular target: T16, biotin-peptide YCEKNNVRQF; assay: ELISA biotin-peptide; scFv 10 ug/mL; repI
Description: as §1, §2, §3

[18] = molecular target: T17, biotin-peptide SMEDYVNFNF; assay: ELISA biotin-peptide; scFv 10 ug/mL; repI
Description: as §1, §2, §3

[19] = molecular target: T18, biotin-peptide FNFTDFYCEK; assay: ELISA biotin-peptide; scFv 10 ug/mL; repI
Description: as §1, §2, §3

[20] = molecular target: T19, biotin-peptide MADDYGSEST; assay: ELISA biotin-peptide; scFv 10 ug/mL; repI
Description: as §1, §2, §3

[21] = molecular target: T7, biotin-peptide IPNMADDYGS; assay: ELISA biotin-peptide; scFv 10 ug/mL; repII
Description: as §1, §3

[22] = molecular target: T14, biotin-peptide SESTSSMEDY; assay: ELISA biotin-peptide; scFv 10 ug/mL; repII
Description: as §1, §3

[23] = molecular target: T17, biotin-peptide SMEDYVNFNF; assay: ELISA biotin-peptide; scFv 10 ug/mL; repII
Description: as §1, §3

Row | OD450 [2] | OD450 [3] | OD450 [4] | OD450 [5] | OD450 [6] | OD450 [7] | OD450 [8] | OD450 [9] | OD450 [10] | OD450 [11] | OD450 [12] | OD450 [13] | OD450 [14] | OD450 [15] | OD450 [16] | OD450 (biotin-peptide KNNVRQFAS) | OD450 [17] | OD450 [18] | OD450 [19] | OD450 [20] | Binder | also measured
1 | 2.22 OD | 0.05 OD | 2.24 OD | 0.08 OD | 0.09 OD | 2.45 OD | 0.17 OD | 0.14 OD | 0.08 OD | 2.56 OD | 0.09 OD | 0.12 OD | 0.09 OD | 2.05 OD | 0.08 OD | 0.07 OD | 0.07 OD | 2.48 OD | 0.05 OD | 0.09 OD | CCR9_HUM2 scFv (humanized anti-CCR9 scFv, SEQ ID NO: 17 with C-terminal 6xHis tag) (scFv) scFv: QVQLVQSGAEVKKPGASVKVSCTASGYSFTDYIIYWVKQAHGQSLEWMGYIDPNNYNTRYSQKFQGKVTITVDKSSTSAYMELNSLTSDDTAVYYCARDVYWGQGTTVTVSSGGGGSGGGGSGGGGSGGGGSDVVMTQTPLSLSVTPGQPASISCRSSQSLVHSNGKTYLQWYLQKPGQSPKLLIYKVSNRFSGVPDRFSGSGSGTDFTLKISRVEAEDVGVYFCAQSTHVWTFGGGTKVEIKRAHHHHHH | Kd [1]: 6.25 nM; koff [1]: 0.00168 s⁻¹; kon [1]: 268000 M⁻¹ s⁻¹; OD450 [21]: 0.1 OD; OD450 [22]: 0.09 OD; OD450 [23]: 2.38 OD
2 | 0.11 OD | 1.38 OD | 0.09 OD | 1.35 OD | 1.6 OD | 0.15 OD | 0.1 OD | 1.59 OD | 0.08 OD | 0.1 OD | 0.1 OD | 0.11 OD | 0.12 OD | 0.1 OD | 0.15 OD | 0.09 OD | 0.11 OD | 0.1 OD | 0.09 OD | 0.09 OD | Comparative antibody 3 (Comp-3) scFv, SR_92R (Somovilla-Crespo et al. 2018), His-tagged (scFv) scFv: EVKLEESGGGLVQPGGSMKLSCVASGFTFNKFWMNWVRQSPEKGLEWVAEIRLKSNNYATHYAESVKGRFTISRDDSKSSVYLQMNNLRAEDTGIYYCASDGWFAYWGQGTLVTVSAGGGGSGGGGSGGGGSGGGGSDVVMTQTPLSLPVSLGDQASISCRSSQSLVHSNGNTYLNWCLQRPGQSPKSLIYKVSNRFSGVPDRFSGSGSGTDFTLKISRVEAEDLGVYFCSQSTHFPRTFGGGTKLEIKRHHHHHH | Kd [1]: 33.1 nM; koff [1]: 0.012 s⁻¹; kon [1]: 364000 M⁻¹ s⁻¹; OD450 [21]: 1.47 OD; OD450 [22]: 0.12 OD; OD450 [23]: 0.12 OD
3 | 0.09 OD | 0.08 OD | 0.06 OD | 0.1 OD | 0.13 OD | 0.1 OD | 0.1 OD | 0.16 OD | 0.08 OD | 0.16 OD | 0.08 OD | 0.06 OD | 0.1 OD | 0.1 OD | 0.13 OD | 0.05 OD | 0.06 OD | 0.15 OD | 0.06 OD | 0.08 OD | Comparative antibody 1 (Comp-1) scFv, SEQ ID NO: 10 from WO2023/037125 A1, His-tagged (scFv) scFv: QVQLKESGPGLVQPSQTLSLTCTVSGFSVASYDMHWVRLPPGKGLEWMGIIWANGNTHYNSGLKSRLSISRDTSKSQVFLKMNSLQTEDTAIYFCTRGGFAYWGQGTLVTVSSGGGGSGGGGSGGGGSGGGGSDVVMTQTPVSLSVSLGGQVSISCRSSQSLVHNNGNTYLSWYLQKPGQSPQLLIYKVSNRFSGVSDRFSGSGSGTDFTLKISRVEPDDLGVYYCGQGTQYPTFGGGTKLELKHHHHHH | OD450 [21]: 0.14 OD; OD450 [22]: 0.1 OD; OD450 [23]: 0.1 OD
4 | 1.97 OD | 0.09 OD | 2.01 OD | 0.08 OD | 0.04 OD | 0.12 OD | 1.93 OD | 0.1 OD | 0.06 OD | 0.1 OD | 0.08 OD | 0.1 OD | 0.09 OD | 0.08 OD | 0.06 OD | 0.08 OD | 0.09 OD | 0.09 OD | 1.45 OD | 0.08 OD | Comparative antibody 2 (Comp-2) scFv, 243LO326 (VH SEQ ID NO: 51 and VL SEQ ID NO: 52 of WO 2022/195028 A2), His-tagged (scFv) scFv: QVQLVQSGAEVKKPGASVKVSCKASGYTFTSYWMHWVRQAPGQGLEWIGVIYPGNSDTRYNQKFKGRVTITRDTSASTAYMELSSLRSEDTAVYYCTRDYYSNYVYYYAMDYWGQGTTVTVSSGGGGSGGGGSGGGGSGGGGSDIVMTQTPLSLPVTPGEPASISCRSSQSLVHPNRNTYLHWYLQKPGQSPQLLIYKVSNRFSGVPDRFSGSGSGTDFTLKISRVEAEDVGVYYCSQSTHVPWTFGQGTKLEIKHHHHHH | Kd [1]: 61.4 nM; koff [1]: 0.0152 s⁻¹; kon [1]: 248000 M⁻¹ s⁻¹; OD450 [21]: 0.09 OD; OD450 [22]: 0.05 OD; OD450 [23]: 0.05 OD
